The values that follow come from paper PMC8388095, “Specificity of Small c-Type Cytochromes in Anaerobic Ammonium Oxidation” (ACS Omega, 2021).

The target of data set [1] is Kuenenia stuttgartiensis hydroxylamine oxidase (Kuenenia stuttgartiensis) (UniProt Q1PX48).
Substrate in the data set “purified protein”: NO
Briefly: purified protein. As to conditions: electron acceptor 50 μM bovine cytochrome c, 20 mM potassium phosphate pH 7.0, 37 °C, kcat per KsHAO trimer. It counts as biochemical, Candidatus Kuenenia stuttgartensis.

“Kustc0563nt (Kustc0563 after cleavage of the N-terminal His-tag) (natural protein)”: in data set [1], the Vmax NH2OH of hydroxylamine oxidation by KsHAO with 50 μM Kustc0563 as the electron acceptor (reduction of the acceptor followed at 550 nm) worked out at 15.8 µmol/min/mg and the kcat NH2OH (KsHAO trimer) of hydroxylamine oxidation by KsHAO with 50 μM Kustc0563 as the electron acceptor was 48.4 s^–1.

Take “bovine (Bos taurus) mitochondrial cytochrome c (from UniProt P62894 1-105) (natural protein)”: in data set [1], the Vmax NH2OH of hydroxylamine oxidation by KsHAO with 50 μM BtCytc as the electron acceptor (reduction of the acceptor followed at 550 nm) was found to be 2.7 µmol/min/mg and the kcat NH2OH (KsHAO trimer) of hydroxylamine oxidation by KsHAO with 50 μM BtCytc as the electron acceptor is 8.4 s^–1.

B1: KsHAO (Candidatus Kuenenia stuttgartensis) (protein)
chain: CAMENGVAMAEGPTFQDVASQVFGQPVGPDNDGTLYIFGLTAKYTEPEYVDGRGPYKSFLKMLPSIRWYDPEHYWTNGSQTEGVFKNEECVLCHTVQTPTIVNDWKQSSHGSKDIRRGIGIKKDGKPVEDLVGCADCHGNNHQKLEMPTYKLCNDCHPKETAEHRAGGLGSHTHAYTVNVLEFSWHVGKPAEEVTGCAHCHAIAENRCSGCHTRHKFDPAEARKPTACRVCHMGIDHDEWAMYNTSIHGALYEAESARMDWGKKLKKGNYRVPTCAYCHMQNGDHNPQRFGTIYSDMGMFQVDRGAPKHKAKRDSWIKLCQDCHSPRFAADKLKEMDAGVNLSFTKWREAAAVIVGCYLDGVVDPMPEGSAPDWYGHYTFSLLPGGDPRFYATSNLERLGLEMICYLTGNVYKAYAHMSMYNQTYGNGSAFEQDRKLVEIKTEAAKLRRFAAIEKKIGLEHKSADFWKHGEYLDLLPGWKRKPGDVDVEWFKRTDIPHRANADAGVEIHH
notes: octaheme c-type cytochrome, trimeric; preparation not described
For B1, in the data set “purified protein”, the Km was determined as 5.8 ± 0.7 µM, the Vmax was determined as 2.7 µmol/min/mg, the kcat was 8.4 s⁻¹ and the kcat/Km amounted to 1.4e+06 M⁻¹ s⁻¹.

For orientation: Km means the substrate concentration at which the rate is half of its maximum. One may read the Vmax as the top rate of the reaction or transport when substrate is in excess. The term kcat denotes the maximal rate divided by the concentration of active sites. For orientation: kcat/Km means the turnover number divided by the Michaelis constant.
